“And” between values parts separate entries of the source, which are not always exact repeats. Equal entries are not always repeated.
Experiments:
[1] = molecular target: DR5-IgG (human); assay: method not stated; against zinc-bound Apo-2L
[2] = molecular target: DR5-IgG (human); assay: phage bound and eluted from DR5-IgG coated well against blank well; phage grown at 37 C

Substance	fold decrease in DR5 affinity [1] [fold]	Enrichment (ratio (DR5-IgG well / blank well)) [2]
Apo-2L after removal of the bound metal by dialysis against chelating agents (ligand)	7	–
wild-type Apo2L/TRAIL (residues 96-281) displayed on M13 phage (ligand)	–	1.5 and 3.3

— patent publication US20070098681A1
